Results as given in patent US10821160B2, “L-asparaginase variants and fusion proteins with reduced L-glutaminase activity and enhanced stability” (priority 2016, dated 2020).

Legend:
[1] = tested on: NC(=O)C[C@H](N)C(=O)O; assay: purified protein, by the assay type; conditions: other: Asn, 37° C
Procedure: Using colorimetric enzyme-coupled assays, L-asparaginase and L-glutaminase activity of the enzymes was determined.

[2] = tested on: NC(=O)C[C@H](N)C(=O)O; assay: purified protein, by the assay type; type: biochemical, Erwinia chrysanthemi; conditions: other: Asn, 37° C
[3] = substrate: NC(=O)C[C@H](N)C(=O)O; assay: L-asparaginase activity, continuous spectroscopic enzyme-coupled assay; type: biochemical, Escherichia coli; conditions: other: Asn, 37° C
Procedure: L-asparaginase activity was determined using a continuous spectroscopic enzyme-coupled assay as previously described (Schalk, et al. (2014) J. Biol. Chem. 289:33175-33186). In brief, the assay measures the production of L-aspartate through the 1:1 oxidation of reduced NADH. The conversion of NADH to NAD^+ was measured spectrophotometrically as a decrease in absorbance at 340 nm at 37° C. All measurements were taken in triplicate. Rates were fit to the Michaelis-Menten equation using SIGMAPLOT software (Systat Software Inc).
The parameters that define the asparagine-depleting power of such enzyme drugs are of significance. […] Enzymologists often combine these two parameters into a single value (kcat/Km) that is thought to represent the efficiency of the enzyme. […] Therefore, the ErA enzyme was selected for developing a variant with low L-glutaminase activity.

[4] = substrate: NC(=O)CC[C@H](N)C(=O)O; assay: L-glutaminase activity, GDH/INT coupled assay; type: biochemical, Escherichia coli; conditions: other: Gln, 37° C, pH 8.5
Procedure: A conventional assay for determining L-glutaminase activity (Gella & Pascual (1982) Anal. Biochem. 127:322-5) was used with some modifications. The purified enzyme was mixed into a solution containing 50 mM Tris-HCl pH 8.5, 1 mg/mL BSA, 7 U GDH (Glutamate dehydrogenase, Sigma-Aldrich), 3 mM INT (Iodonitrotetrazolium chloride, Sigma-Aldrich), 100 mM PMS (Phenazine methosulfate, Sigma-Aldrich), and 100 mM NAD+. […] The latter, in the presence of NAD+ and under the catalysis of GDH, is broken further into α-ketoglutarate and ammonia. NADH produced by this second reaction, together with INT serve as inputs to the third reaction, where the formation of INT-formazan under the catalysis of PMS can be followed spectrophotometrically as an increase in absorbance at 500 nm. All reactions were carried out at 37° C. 1 IU of enzyme is defined as the amount of enzyme used to produce 1 μmole of product in 1 minute at 37° C.

## Erwinia chrysanthemi L-asparaginase (ErA) variant E63Q (ErA-E63Q), SEQ ID NO:2 (Dickeya chrysanthemi; E84Q)
[1]
  Km: 51 µM

## Erwinia chrysanthemi L-asparaginase (ErA) variant E63Q-S254N (ErA-DM1), SEQ ID NO:3 (Dickeya chrysanthemi; E84Q/S275N)
[2]
  Km: 185 µM

B1: Escherichia coli L-asparaginase, wild type (EcA-WT), SEQ ID NO:9 (Escherichia coli K-12) (protein)
chain: MLPNITILATGGTIAGGGDSATKSNYTVGKVGVENLVNAVPQLKDIANVKGEQVVNIGSQDMNDNVWLTLAKKINTDCDKTDGFVITHGTDTMEETAYFLDLTVKCDKPVVMVGAMRPSTSMSADGPFNLYNAVVTAADKASANRGVLVVMNDTVLDGRDVTKTNTTDVATFKSVNYGPLGYIHNGKIDYQRTPARKHTSDTPFDVSKLNELPKVGIVYNYANASDLPAKALVDAGYDGIVSAGVGNGNLYKSVFDTLATAAKTGTAVVRSSRVPTGATTQDAEVDDAKYGFVASGTLNPQKARVLLQLALTQTKDPQQIQQIFNQY
[3]
  Km: 15.0 ± 0.5 µM
  kcat: 44.4 ± 0.3 s⁻¹
  kcat/Km: 2.96e+06 M⁻¹ s⁻¹
[4]
  Km: 1380 ± 90 µM
  kcat: 0.89 ± 0.01 s⁻¹
  kcat/Km: 640 M⁻¹ s⁻¹
